What was measured:
Details in all cases: one partner purified
[1] = molecular target: T1, GluA2 in native GluA2-containing AMPARs from mouse brain (Mus musculus, C57BL/6, UniProt P23819); test: pull-down; immunoaffinity purification: 15F1-GFP incubated with digitonin-solubilized membrane supernatant (on ice, 20 min), 15F1-GFP-bound AMPARs held on Streptactin resin by the twin-Strep II tag, eluted with 8 mM d-desthiobiotin, then SEC (Superose 6) in TBS, 1 uM (R,R)-2b, 1 uM MPQX, 0.075% digitonin; read out by FSEC and silver-stained SDS-PAGE
T1 construct: AMPA receptor subunit GluA2, mouse, endogenous in brain; also called native mouse AMPARs; source: endogenous, mouse (C57BL/6) brain membranes, solubilized in 2% digitonin
T1 sequence (P23819 25-883): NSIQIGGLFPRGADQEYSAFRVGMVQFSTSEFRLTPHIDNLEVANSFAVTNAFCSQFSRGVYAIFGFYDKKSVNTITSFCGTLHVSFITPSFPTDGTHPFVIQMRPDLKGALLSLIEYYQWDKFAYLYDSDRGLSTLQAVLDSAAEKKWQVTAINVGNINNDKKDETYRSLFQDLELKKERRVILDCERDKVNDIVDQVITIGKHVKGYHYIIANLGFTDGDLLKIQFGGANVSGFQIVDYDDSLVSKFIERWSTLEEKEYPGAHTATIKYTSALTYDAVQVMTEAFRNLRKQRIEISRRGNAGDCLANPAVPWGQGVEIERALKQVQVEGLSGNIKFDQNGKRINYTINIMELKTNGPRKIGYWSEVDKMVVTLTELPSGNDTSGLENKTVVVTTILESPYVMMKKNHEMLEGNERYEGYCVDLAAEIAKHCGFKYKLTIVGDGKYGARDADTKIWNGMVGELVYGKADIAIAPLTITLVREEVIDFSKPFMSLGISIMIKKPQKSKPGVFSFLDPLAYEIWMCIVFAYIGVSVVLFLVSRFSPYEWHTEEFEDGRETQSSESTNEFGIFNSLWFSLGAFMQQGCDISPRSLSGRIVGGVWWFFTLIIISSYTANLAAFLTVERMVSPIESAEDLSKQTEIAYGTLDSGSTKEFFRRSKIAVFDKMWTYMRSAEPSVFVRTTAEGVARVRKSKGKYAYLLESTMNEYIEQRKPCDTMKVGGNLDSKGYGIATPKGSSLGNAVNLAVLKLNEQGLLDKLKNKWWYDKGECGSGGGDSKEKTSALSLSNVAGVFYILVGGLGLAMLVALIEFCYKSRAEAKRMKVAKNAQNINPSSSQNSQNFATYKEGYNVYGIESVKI

[2] = molecular target: T2, GluA2 in native GluA2-containing AMPARs from pig brain (Sus scrofa (pig), endogenous brain, UniProt A0A287AEG6); test: SEC; fluorescence-size exclusion chromatography (FSEC), GFP fluorescence; 15F1-GFP Fab added to membranes solubilized in 2% digitonin (w/v), equal masses of membranes from each mammal
T2 construct: AMPA receptor subunit GluA2, pig, endogenous in brain; also called native pig AMPARs; source: endogenous, pig brain membranes, solubilized in 2% digitonin

[3] = molecular target: T3, GluA2 in native GluA2-containing AMPARs from rat brain (Rattus norvegicus, Sprague Dawley, UniProt P19491); test: as above
T3 construct: AMPA receptor subunit GluA2, rat, endogenous in brain; also called native rat AMPARs; source: endogenous, rat (Sprague Dawley) brain membranes, solubilized in 2% digitonin
T3 sequence (P19491 22-883): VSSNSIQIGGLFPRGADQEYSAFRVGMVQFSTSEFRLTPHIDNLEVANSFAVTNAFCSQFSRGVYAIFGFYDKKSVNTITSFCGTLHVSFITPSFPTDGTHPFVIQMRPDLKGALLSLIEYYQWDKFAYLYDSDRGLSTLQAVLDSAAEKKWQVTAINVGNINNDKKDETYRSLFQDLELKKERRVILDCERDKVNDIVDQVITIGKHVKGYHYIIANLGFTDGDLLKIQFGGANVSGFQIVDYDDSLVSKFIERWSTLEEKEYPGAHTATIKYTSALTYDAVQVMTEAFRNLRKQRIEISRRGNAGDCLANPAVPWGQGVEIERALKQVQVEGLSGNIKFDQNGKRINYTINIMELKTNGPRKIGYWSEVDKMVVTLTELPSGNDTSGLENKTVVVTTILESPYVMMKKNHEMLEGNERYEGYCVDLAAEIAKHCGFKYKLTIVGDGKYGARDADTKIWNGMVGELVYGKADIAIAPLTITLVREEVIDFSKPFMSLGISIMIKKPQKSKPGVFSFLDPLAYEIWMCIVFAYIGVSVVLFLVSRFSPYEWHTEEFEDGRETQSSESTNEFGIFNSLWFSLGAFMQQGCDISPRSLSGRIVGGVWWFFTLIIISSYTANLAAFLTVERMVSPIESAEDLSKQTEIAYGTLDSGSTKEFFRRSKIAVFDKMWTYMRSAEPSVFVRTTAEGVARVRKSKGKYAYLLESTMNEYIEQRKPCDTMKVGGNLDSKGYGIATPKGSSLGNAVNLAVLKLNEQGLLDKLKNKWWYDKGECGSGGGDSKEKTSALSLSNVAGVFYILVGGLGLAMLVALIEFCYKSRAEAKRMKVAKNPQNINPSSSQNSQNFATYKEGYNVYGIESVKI

Measured: binding result

B1: 15F1-GFP Fab (Fab, V domains shown)
VH: QAQLKESGPGLVAPSQSLSITCTVSGFSLTNYGVHWVRQPPGKGLEWLGVIWAGGSTNYNSALMSRVSISKDNSKSQVFLKMNSLQTDDTVMYYCAREDYDYDWHFDVWGAGTTVTVSS
VL: EIQMTQTTSSLSASLGDRVTISCRASQDISNYLSWYQQKPDGTVKLLIYYTSRLHSGVPSRFSGSGSGIDYSLTINNLEQEDFATYFCQQGNTLPLTFGAGTKLELK
notes: Fab domain of the heavy chain of the 15F1 monoclonal antibody; Fab domain of the light chain of the 15F1 monoclonal antibody; On the heavy chain eGFP is followed by the twin-Strep II tag; also called 15F1 Fab; anti-GluA2 antibody fragment; not shown: eGFP, C-terminal, kept; twin-Strep II, C-terminal, kept
binds: all assays above

From publication PMC10022779, “Purification and biochemical analysis of native AMPA receptors from three different mammalian species” (PLOS ONE, 2023)
